In article PMC5758890:

Experiments:
[1] = molecular target: T. thermophilus RNAP core enzyme (T. thermophilus) (UniProt Q5SHR6); assay: SPR
[2] = molecular target: T. thermophilus RNAP σ^A holoenzyme (T. thermophilus HB8) (UniProt Q5SHR6); assay: SPR

Substance: Thermus thermophilus bacteriophage P23–45 gp76 (natural protein)
- Kd [1]: 8.4 µM
- Kd [2]: 0.12 µM
